Substrate in data set [1]: O=C[C@@H](O)CO
Description: purified protein. Conditions: donor DHAP 60 mM, 50 mM TEA pH 7.5, 25 °C, apparent.

Substrate in data set [2]: O=C(CO)CO
Description: purified protein. The conditions noted are these: acceptor varied 2-80 mM, donor DHAP 60 mM, 50 mM TEA pH 7.5, 25 °C, apparent.

B1: L-rhamnulose-1-phosphate aldolase (RhaD) (Escherichia coli K-12) (protein)
chain: MQNITQSWFVQGMIKATTDAWLKGWDERNGGNLTLRLDDADIAPYHDNFHQQPRYIPLSQPMPLLANTPFIVTGSGKFFRNVQLDPAANLGIVKVDSDGAGYHILWGLTNEAVPTSELPAHFLSHCERIKATNGKDRVIMHCHATNLIALTYVLENDTAVFTRQLWEGSTECLVVFPDGVGILPWMVPGTDEIGQATAQEMQKHSLVLWPFHGVFGSGPTLDETFGLIDTAEKSAQVLVKVYSMGGMKQTISREELIALGKRFGVTPLASALAL
Consider B1, for which, in “purified protein [1]” (acceptor varied 0.2-60 mM), the Km (commonly the concentration of substrate that gives half-maximal velocity) came to 40.8 ± 5.8 mM; the maximum rate (Vmax) (usually the top rate of the reaction or transport when substrate is in excess) came out at 4.3 µmol/min/mg; the kcat (as a rule, the number of substrate molecules converted per active site and unit of time at saturation) is 20.5 s⁻¹; the kcat/Km (as a rule, the second-order rate constant that governs catalysis at low substrate concentration) turned out to be 500 M⁻¹ s⁻¹. In addition, in “purified protein [2]”, the Km was 23.4 ± 9.69 mM, the Vmax came out at 0.86 µmol/min/mg, the kcat worked out at 4.1 s⁻¹ and the kcat/Km worked out at 180 M⁻¹ s⁻¹.

B2: L-fuculose-1-phosphate aldolase (FucA) (Escherichia coli K-12) (protein)
chain: MERNKLARQIIDTCLEMTRLGLNQGTAGNVSVRYQDGMLITPTGIPYEKLTESHIVFIDGNGKHEEGKLPSSEWRFHMAAYQSRPDANAVVHNHAVHCTAVSILNRSIPAIHYMIAAAGGNSIPCAPYATFGTRELSEHVALALKNRKATLLQHHGLIACEVNLEKALWLAHEVEVLAQLYLTTLAITDPVPVLSDEEIAVVLEKFKTYGLRIEE
Turning to B2, in the data set “purified protein [1]” (acceptor varied 0.5-60 mM), the Km was 54.1 ± 3.6 mM, the Vmax amounted to 1.5 µmol/min/mg, the turnover number (kcat) came to 5 s⁻¹ and the specificity constant (kcat/Km) is 92 M⁻¹ s⁻¹.
